Source: US20210371503A1 (UNIVERSITY OF COLOGNE, published 2021)
Numbering of substitutions follows the chain as printed.

Assays:
[1] = biological target: T1, prefusion stabilized SARS-CoV-2 S ectodomain (SARS-CoV-2, UniProt P0DTC2 14-1208); assay: ELISA, coated S ectodomain
T1 construct: also called SARS-CoV-2 spike ectodomain; ectodomain of the spike (S) homotrimer of SARS-CoV-2

[2] = biological target: T1, prefusion stabilized SARS-CoV-2 S …; assay: ELISA, coated S ectodomain [cont'd]
[3] = biological target: T1, prefusion stabilized SARS-CoV-2 S …; assay: ELISA, coated S ectodomain [cont'd]; remark: listed apart in the source
[4] = biological target: T1, prefusion stabilized SARS-CoV-2 S …; assay: ELISA, coated S ectodomain [cont'd]; remark: listed apart in the source

B1: CnC2t1p1_D6 (antibody, V domains shown)
VH: EVQLVESGGGLVQPGRSLRLSCTASGFTFGDYAMSWFRQAPGKGLEWVGFIRSKAYGGTTEYAASVKGRFTISRDDSKSIAYLQMNSLKTEDTAVYYCTRVRRLWFGSYYYGMDVWGQGTTVTVSS
VL: not shown
EC50 [1]: 0.03 µg/mL

B2: CnC2t1p1_E12 (antibody, V domains shown)
VH: B1 VH with A81V
VL: not shown
EC50 [1]: 0.03 µg/mL

B3: CnC2t1p1_B4 (antibody, V domains shown)
VH: QVQLVQSGAEVKKPGASVKVSCKASGYTFTSYGISWVRQAPGQGLEWMGWISAYNGNTNYAQKLQGRVTMTTDTSTSTAYMELRSLRSDDTAVYYCARDGELLGWFDPWGQGTLVTVSS
VL: QSALTQPASVSGSPGQSITISCTGTSSDVGSYNLVSWYQQHPGKAPKLMIYEGSKRPSGVSNRFSGSKSGNTASLTISGLQAEDEADYYCCSYAGSSTWVFGGGTKLTVL
EC50 [1]: 0.03 µg/mL

B4: CnC2t1p1_E8 (antibody, V domains shown)
VH: QVQLVQSGAEVKNPGASVKVSCKASGYIFTNYYIHWVRQAPGQGLEWVGWIHSLSGGTSYAQKFQGRVTLTRDASIRTAYMELSRLGSDDTALYYCARASVSTITDFDYWGQGTLVAVSS
VL: B3 VL with S27G, M49V, G53A, S54T, S65F, G66A, S96V, S97R, W99V
EC50 [1]: 0.13 µg/mL

B5: CnC2t1p1_G6 (antibody, V domains shown)
VH: B4 VH with N13K, S75P, R85G, L93V, S102A
VL: B3 VL with S27G, V29I, H41Y, M49I, G53A, S65F, G66A, S96V, S97R, W99V
EC50 [1]: 0.31 µg/mL

B6: MnC2t1p1_A3 (antibody, V domains shown)
VH: EVQLVESGGGLVQPGGSLRLSCAASGFTVSSNYMSWVRQAPGRGLEWVSVIYSGGSTFYADSVKGRFTISRDNSKNTLYLQMNSLRPEDTAVYYCATGARFGESPFDYWGQGTLVTVSS
VL: DIQMTQSPSSVSASVGDRVTITCRASQGISSWLAWYQQKPGKAPKLLIYAASSLQSGVPSRFSGSGSGTDFTLTISSLQPEDFATYYCQQANSFPGTFGQGTKVEIK
EC50 [2]: 0.05 µg/mL

B7: MnC2t1p1_C5 (antibody, V domains shown)
VH: B6 VH with R43K, F58Y, P87A
VL: B6 VL
EC50 [2]: 0.07 µg/mL

B8: HbnC3t1p1_C6 (antibody, V domains shown)
VH: QMQLVQSGPEVKKPGTSVKVSCKASGFTFTSSAVQWVRQARGQRLEWIGWIVVGSGNTNYAQKFQERVTITRDMSTSTAYMELSSLRSEDTAVYYCAAPHCSSTICYDGFDIWGQGTMVTVSS
VL: not shown
EC50 [3]: 0.06 µg/mL

B9: HbnC3t1p2_C6 (antibody, V domains shown)
VH: B8 VH with T30S, E66G, S77R, V93M, H100Y, I105R, G109A
VL: not shown
EC50 [3]: 0.04 µg/mL

B10: MnC5t2p1_G1 (antibody, V domains shown)
VH: B8 VH with N59D, M74V, H100R, S103G, T104G, I105S
VL: EIVLTQSPGTLSLSPGERATLSCRASQSVSSSYLAWYQHKPGQAPRLLICGASSRATGIPDRFSGSGSGTGFTLTISRLEPEDFAVYYCQQYGSSPWTFGQGTKVEIK
EC50 [4]: 0.03 µg/mL

B11: HbnC4t1p1_D5 (antibody, V domains shown)
VH: EVQLVESGGGLVQPGRSLRLSCAASGFTFDDYAMHWVRQAPGKGLEWVSGISWNSGSIGYADSVKGRFTISRDNAKNSLYLQMNSLRAEDTGLYYCAKDINYDSGGYHKNYFDYWGQGTLVTVSS
VL: DIQMTQSPSSLSASVGDRATITCRASQSISSYLNWYQEKPGKAPKLLIYAASSLQSGVPSRFSGSGSGTDFTLTISSLQPEDFATYYCQQSYSNPLTFGGGTKVEIK
EC50 [3]: 0.25 µg/mL

B12: HbnC3t1p1_G4 (antibody, V domains shown)
VH: EVQLVESGGGLVQPGGSLRLSCAASGFTVSSNYMSWVRQAPGKGLEWVSVIYSGGSTFYADSVKGRFTISRDNSKNTLYLQMNSLRAEDTAVYYCARDFGDFFFDYWGQGTLVTVSS
VL: EIVLTQSPGTLSLSPGERATLSCRASQSVSSYLAWYQQKPGQAPRLLIYGVSSRATGIPDRFSGSGSGTDFTLTISRLEPEDFAVYYCQQYGSSPRTFGQGTKVEIK
EC50 [3]: 0.02 µg/mL

B13: HbnC3t1p2_B10 (antibody, V domains shown)
VH: B12 VH with T28I, F99Y, F102Y
VL: B12 VL with Y49S, V51A, T56A, S76N, V104L
EC50 [3]: 0.22 µg/mL

B14: MnC4t2p2_A4 (antibody, V domains shown)
VH: QVQLVQSGSELKKPGASVKISCKASGYIFINYAMNWVRQAPGQGLEWMGWINTNTGNPTYAQDFTGRFVFSLDTSLSTAYLQISSLEAEDTAVYYCAKIGSRNSLGVWGQGTLVTVSA
VL: EIVLTQSPGTLSLSPGERATLSCRASHSVDRSYLAWYQQKPGLAPRLLIYGASSRATGIPDRFSGSGSGTDFTLTISRLEPEDFALYYCQHFGTSSVTFGRGTRLEIK
EC50 [4]: 0.02 µg/mL

B15: MnC4t1p1_A11 (antibody, V domains shown)
VH: EVQLVESGGGLVQPGGSLRLSCAASGFTFSSYSMNWVRQAPGKGLEWVSYISSSSNTRYYTDSVMGRFTISRDNAKNSLFLQMNSLRAEDTAVYYCASSKGFCSGGSCSDYWGQGTLVTVSS
VL: B10 VL with H39Q, C50Y, A52V, G71D, A85V, Q90H
EC50 [2]: 0.05 µg/mL

B16: CnC2t1p1_B10 (antibody, V domains shown)
VH: QVQLVQSGAEVKKPGSSVKVSCKASGGTFSSYAISWVRQAPGQGLEWMGGIIPIFGTANYAQKFQGRVTITADKSTSTAYMELSSLRSEDTAVYYCARVSGYDSSGYWGDYWGQGTLVTVSS
VL: EIVLTQSPATLSLSPGERATLSCRASQSVSSYLAWYQQKPGQAPRLLIYDASNRATGIPARFSGSGSGTDFTLTISSLEPEDFAVYYCQQRSNWPPALTFGGGTKVEIK
EC50 [1]: 0.32 µg/mL

B17: HbnC3t1p1_F4 (antibody, V domains shown)
VH: QVQLVESGGGVVQPGRSLRLSCAATGFTFRRYGMHWVRQAPGKGLEWVAGILFDGSNKYYVDSVKGRFTISRDSSRNTLYLQLNSLRREDTAVYYCAKGGDYEWELLESWGQGTLVTVSS
VL: DIQMTQSPSTVSASVGDRVTITCRASQSIDNWLAWYQEKPGKAPKVLIYKASSLESGVPSRFSGRGSGTEFTLTISSLQPGDFATYYCQHYHSFPLTFGGGTKVDIK
EC50 [3]: 0.04 µg/mL

B18: FnC1t1p2_A5 (antibody, V domains shown)
VH: QVQLVQSGAEVKKPGASVKVSCKASGYTFTSYDINWVRQATGQGLEWMGWMNPNSGNTGYAQKFQGRVTMTRNTSISTAYMELSSLRSEDTAVYYCARATTDCSSTSCWSLDFWSGYYTGGREKIFDYWGQGTLVTVSS
VL: not shown
binding result [1]: binds

B19: FnC1t2p1_D4 (antibody, V domains shown)
VH: QVQLVQSGSELKKPGASVKVSCKASGYTFLRFAMNWLRQAPGQGLEWMGWIDTNTGTPTYAQGFTGRFVFSLDTSVSTAYLQISSLKAEDTAVYYCARSLRGANLVPWGQGTLVTVSS
VL: DIQMTQSPSSLSASVGDRVTITCQASQDVSNYLNWYQQQPGKAPKLLIYDAFNLETGVPSRFSGSGSGTDFTFTISSLQPEDIATYYCQQYDNLPLTFGGGTKVEIK
EC50 [1]: 0.02 µg/mL

B20: FnC1t2p1_G5 (antibody, V domains shown)
VH: B19 VH
VL: B19 VL
EC50 [3]: 0.02 µg/mL

B21: MnC1t3p1_G9 (antibody, V domains shown)
VH: EVQLLESGGGLVQPGGSLRLSCAASGFTFRNYAMTWVRQAPGKGLEWVSGISDSGDRTYNADSVKGRFSISRDNSKNTLHLQMNSLRAEDTAVYYCALASGSYFGGANYWGQGTLVTVSS
VL: QAVVTQEPSLTVSPGGTVTLTCGSSTGPVTSDHYPYWFQQKPGQAPTTLIYDTNNKHSWTPARFSGSLLGGKAALTLSGAQPEDEAEYYCLLSYTGARVFGGGTKLTVL
EC50 [2]: 0.33 µg/mL

B22: MnC4t2p1_B3 (antibody, V domains shown)
VH: EVQLVESGGHLVQPGRSLRLSCAASGFTFDDYAMHWVRQVPGKGLEWVSGISWNGGILDYADSVKGRFTISRDNAKNSLYLHMRSLRTDDTALYYCAKDLRRQDYYADWYFDLWGRGTLVTVSS
VL: DIQMIQSPSSVSASVGDRVTITCRASQGISSWLAWYQQKPGKAPKLLIYAASTLLSAVPSRFSGSGSGTDFTLTISSLQPEDFATYYCQQGNSFPFTFGPGTIVDV
EC50 [2]: 0.06 µg/mL

B23: MnC4t2p1_E6 (antibody, V domains shown)
VH: B22 VH with D59G, H82Q
VL: B22 VL with I5T, I103K
EC50 [4]: 0.03 µg/mL

B24: HbnC2t1p2_D9 (antibody, V domains shown)
VH: QVQLVESGGGVVQPGRSLRLSCAASGFTFSSYGMHWVRQAPGKGLEWVAVIWYDGRNKYYVDSVKGRFTISRDNSKNTLYLQISSLRAEDTAVYYCARAARRPVVTDTMAYYMDVWGKGTTVTVSS
VL: EIVLTQSPATLSLSPGERATLSCRASLSLSSYLAWYQQKPGQAPRLLIYDASNRATGIPARFSGSGSGTDFTLTISSLEPEDFAVYYCQQRSNWPPTWTFGQGTKAEIKR
EC50 [3]: 0.04 µg/mL

B25: MnC2t2p1_C11 (antibody, V domains shown)
VH: QVQLVQSGAEVKKPGSSVKVSCKASGGTFSRYTIIWVRQAPGQGLEWMGRIIPILDIANYAQKFQGRVTITADKSTSTAYMELSSLRSEDTAVYYCAREGGLDYFGSRNSGWTYTWFDPWGQGTLVTVSS
VL: DIQMTQSPSSLSASVGDRVTITCRASQNISSYLNWYQQKPGKAPNLLIYAASSLQSGVPPRFSGSGSGTDFTLTISSLQPEDFATYYCQQSYSTLYSFGQGTKLEIK
EC50 [2]: 0.02 µg/mL
